10 sequences from the supplement of paper PMC5998384 can be followed below.

Data set [1] concerns HeLa Kyoto. As to the kind of experiment: solubility in G1/S (NP-40 vs SDS abundance) (log2 ratio); higher = more soluble. The conditions noted are these: cell cycle stage: G1/S.
In data set [2] the test system is HeLa Kyoto. In words: melting temperature (median over replicates), in situ; higher = more thermally stable.
For data set [3], the system named is HeLa Kyoto. As to the kind of experiment: solubility change mitosis vs G1/S (difference of NP-40 vs SDS log2 ratios) (log2 ratio difference); higher = more soluble in mitosis.
The test system of data set [4] is HeLa Kyoto. As to the kind of experiment: thermal stability score vs G1/S (z-score of summed log2 fold changes over temperatures); higher = more thermally stable than in G1/S.
Setting [5] is: cell cycle stage: early G1 (4.5 h after nocodazole release).
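For melting temperature (median over replicates), in situ in this document: HeLa Kyoto cells synchronized by double thymidine or nocodazole block, proteins quantified by TMT10plex mass spectrometry, three independent biological replicates.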
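For solubility change mitosis vs G1/S (difference of NP-40 vs SDS log2 ratios) in this document: synchronized HeLa Kyoto cells (double thymidine block for G1/S, nocodazole release for mitosis), protein amounts in NP-40 versus SDS lysates quantified by mass spectrometry, three biological replicates.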
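For solubility in G1/S (NP-40 vs SDS abundance) in this document: HeLa Kyoto cells arrested at G1/S by double thymidine block, proteins quantified by TMT10plex mass spectrometry in mild NP-40 versus SDS extracts, three biological replicates.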
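For thermal stability score vs G1/S (z-score of summed log2 fold changes over temperatures) in this document: synchronized HeLa Kyoto cells, proteins quantified by TMT10plex mass spectrometry, three biological replicates, mitosis taken 0.5 h after nocodazole release, G1/S directly after double thymidine block.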

Regarding “MAANMYRVGDYVYFENSSSNPYLVRRIEELNKTANGNVEAKVVCLFRRRDISSSLNSLADSNAREFEEESKQPGVSEQQRHQLKHRELFLSRQFESLPATHIRGKCSVTLLNETDILSQYLEKEDCFFYSLVFDPVQKTLLADQGEIRVGCKYQAEIPDRLVEGESDNRNQQKMEMKVWDPDNPLTDRQIDQFLVVARAVGTFARALDCSSSIRQPSLHMSAAAASRDITLFHAMDTLQRNGYDLAKAMSTLVPQGGPVLCRDEMEEWSASEAMLFEEALEKYGKDFNDIRQDFLPWKSLASIVQFYYMWKTTDRYIQQKRLKAAEADSKLKQVYIPTYTKPNPNQIISVGSKPGMNGAGFQKGLTCESCHTTQSAQWYAWGPPNMQCRLCASCWIYWKKYGGLKTPTQLEGATRGTTEPHSRGHLSRPEAQSLSPYTTSANRAKLLAKNRQTFLLQTTKLTRLARRMCRDLLQPRRAARRPYAPINANAIKAECSIRLPKAAKTPLKIHPLVRLPLATIVKDLVAQAPLKPKTPRGTKTPINRNQLSQNRGLGGIMVKRAYETMAGAGVPFSANGRPLASGIRSSSQPAAKRQKLNPADAPNPVVFVATKDTRALRKALTHLEMRRAARRPNLPLKVKPTLIAVRPPVPLPAPSHPASTNEPIVLED [MTA2]”, in data set [1], the “solubility in G1/S (log2)” value was -0.0629. Besides, the melting temperature is 48.4 °C in data set [2] (cell cycle stage: G1/S) and 49.5 °C in data set [2] (cell cycle stage: mitosis). For the same sequence, in data set [3], the “solubility change mitosis (log2)” value was -0.00514. The thermal stability score in data set [4] (setting [5]) is 0.686; in data set [4] (cell cycle stage: mitosis), 5.69.

“MAANYSSTSTRREHVKVKTSSQPGFLERLSETSGGMFVGLMAFLLSFYLIFTNEGRALKTATSLAEGLSLVVSPDSIHSVAPENEGRLVHIIGALRTSKLLSDPNYGVHLPAVKLRRHVEMYQWVETEESREYTEDGQVKKETRYSYNTEWRSEIINSKNFDREIGHKNPSAMAVESFMATAPFVQIGRFFLSSGLIDKVDNFKSLSLSKLEDPHVDIIRRGDFFYHSENPKYPEVGDLRVSFSYAGLSGDDPDLGPAHVVTVIARQRGDQLVPFSTKSGDTLLLLHHGDFSAEEVFHRELRSNSMKTWGLRAAGWMAMFMGLNLMTRILYTLVDWFPVFRDLVNIGLKAFAFCVATSLTLLTVAAGWLFYRPLWALLIAGLALVPILVARTRVPAKKLE [TMEM43]”: the “solubility in G1/S (log2)” value in data set [1] was -0.206. Further, the melting temperature in data set [2] (cell cycle stage: G1/S) stood at 53.5 °C; in data set [2] (cell cycle stage: mitosis), 53.1 °C. Moreover, the “solubility change mitosis (log2)” value in data set [3] is -0.244. The thermal stability score in data set [4] (setting [5]) was determined as 3.06; in data set [4] (cell cycle stage: mitosis) it was 4.18.

As for “MAAPAQQTTQPGGGKRKGKAQYVLAKRARRCDAGGPRQLEPGLQGILITCNMNERKCVEEAYSLLNEYGDDMYGPEKFTDKDQQPSGSEGEDDDAEAALKKEVGDIKASTEMRLRRFQSVESGANNVVFIRTLGIEPEKLVHHILQDMYKTKKKKTRVILRMLPISGTCKAFLEDMKKYAETFLEPWFKAPNKGTFQIVYKSRNNSHVNREEVIRELAGIVCTLNSENKVDLTNPQYTVVVEIIKAVCCLSVVKDYMLFRKYNLQEVVKSPKDPSQLNSKQGNGKEAKLESADKSDQNNTAEGKNNQQVPENTEELGQTKPTSNPQVVNEGGAKPELASQATEGSKSNENDFS [THUMPD1]”, in data set [1], the “solubility in G1/S (log2)” value amounted to 0.555. Also, the figures for the melting temperature in data set [2] (cell cycle stage: G1/S) and in data set [2] (cell cycle stage: mitosis) were 53.7 °C and 54.3 °C, respectively. Besides, the “solubility change mitosis (log2)” value in data set [3] was -0.0115. Besides, the thermal stability score in data set [4] (setting [5]) amounted to 0.34; in data set [4] (cell cycle stage: mitosis), 2.04.

Regarding “MAAPEERDLTQEQTEKLLQFQDLTGIESMDQCRHTLEQHNWNIEAAVQDRLNEQEGVPSVFNPPPSRPLQVNTADHRIYSYVVSRPQPRGLLGWGYYLIMLPFRFTYYTILDIFRFALRFIRPDPRSRVTDPVGDIVSFMHSFEEKYGRAHPVFYQGTYSQALNDAKRELRFLLVYLHGDDHQDSDEFCRNTLCAPEVISLINTRMLFWACSTNKPEGYRVSQALRENTYPFLAMIMLKDRRMTVVGRLEGLIQPDDLINQLTFIMDANQTYLVSERLEREERNQTQVLRQQQDEAYLASLRADQEKERKKREERERKRRKEEEVQQQKLAEERRRQNLQEEKERKLECLPPEPSPDDPESVKIIFKLPNDSRVERRFHFSQSLTVIHDFLFSLKESPEKFQIEANFPRRVLPCIPSEEWPNPPTLQEAGLSHTEVLFVQDLTDE [FAF2]”, in data set [1], the “solubility in G1/S (log2)” value is -0.0258. Besides, the melting temperature in data set [2] (cell cycle stage: G1/S) was 49.9 °C; in data set [2] (cell cycle stage: mitosis), 50.4 °C. Moreover, the “solubility change mitosis (log2)” value in data set [3] was -0.13. Further, the thermal stability score is 2.25 in data set [4] (setting [5]) and 3.16 in data set [4] (cell cycle stage: mitosis).

In the case of “MAAPEPLRPRLCRLVRGEQGYGFHLHGEKGRRGQFIRRVEPGSPAEAAALRAGDRLVEVNGVNVEGETHHQVVQRIKAVEGQTRLLVVDQETDEELRRRQLTCTEEMAQRGLPPAHDPWEPKPDWAHTGSHSSEAGKKDVSGPLRELRPRLCHLRKGPQGYGFNLHSDKSRPGQYIRSVDPGSPAARSGLRAQDRLIEVNGQNVEGLRHAEVVASIKAREDEARLLVVDPETDEHFKRLRVTPTEEHVEGPLPSPVTNGTSPAQLNGGSACSSRSDLPGSDKDTEDGSAWKQDPFQESGLHLSPTAAEAKEKARAMRVNKRAPQMDWNRKREIFSNF [SLC9A3R2]”, the “solubility in G1/S (log2)” value in data set [1] turned out to be 0.422. In addition, the melting temperature in data set [2] (cell cycle stage: G1/S) is 53.6 °C; in data set [2] (cell cycle stage: mitosis), 54.2 °C. In addition, the “solubility change mitosis (log2)” value in data set [3] is -0.0543. The thermal stability score is -1.69 in data set [4] (setting [5]) and -3.57 in data set [4] (cell cycle stage: mitosis).

Turning to “MAAPGSARRPLLLLLLLLLLGLMHCASAAMFMVKNGNGTACIMANFSAAFSVNYDTKSGPKNMTFDLPSDATVVLNRSSCGKENTSDPSLVIAFGRGHTLTLNFTRNATRYSVQLMSFVYNLSDTHLFPNASSKEIKTVESITDIRADIDKKYRCVSGTQVHMNNVTVTLHDATIQAYLSNSSFSRGETRCEQDRPSPTTAPPAPPSPSPSPVPKSPSVDKYNVSGTNGTCLLASMGLQLNLTYERKDNTTVTRLLNINPNKTSASGSCGAHLVTLELHSEGTTVLLFQFGMNASSSRFFLQGIQLNTILPDARDPAFKAANGSLRALQATVGNSYKCNAEEHVRVTKAFSVNIFKVWVQAFKVEGGQFGSVEECLLDENSMLIPIAVGGALAGLVLIVLIAYLVGRKRSHAGYQTI [LAMP1]”, the “solubility in G1/S (log2)” value in data set [1] was 0.0646. Besides, the values for the melting temperature in data set [2] (cell cycle stage: G1/S) and in data set [2] (cell cycle stage: mitosis) were 59.9 °C and 61.1 °C, respectively. Besides, the “solubility change mitosis (log2)” value in data set [3] came out at 0.0596. The thermal stability score is -2.35 in data set [4] (setting [5]) and -3.71 in data set [4] (cell cycle stage: mitosis).

Regarding “MAAPLRIQSDWAQALRKDEGEAWLSCHPPGKPSLYGSLTCQGIGLDGIPEVTASEGFTVNEINKKSIHISCPKENASSKFLAPYTTFSRIHTKSITCLDISSRGGLGVSSSTDGTMKIWQASNGELRRVLEGHVFDVNCCRFFPSGLVVLSGGMDAQLKIWSAEDASCVVTFKGHKGGILDTAIVDRGRNVVSASRDGTARLWDCGRSACLGVLADCGSSINGVAVGAADNSINLGSPEQMPSEREVGTEAKMLLLAREDKKLQCLGLQSRQLVFLFIGSDAFNCCTFLSGFLLLAGTQDGNIYQLDVRSPRAPVQVIHRSGAPVLSLLSVRDGFIASQGDGSCFIVQQDLDYVTELTGADCDPVYKVATWEKQIYTCCRDGLVRRYQLSDL [PAAF1]”, the “solubility in G1/S (log2)” value in data set [1] was -0.094. Besides, the melting temperature in data set [2] (cell cycle stage: G1/S) is 54 °C; in data set [2] (cell cycle stage: mitosis), 53.9 °C. Also, the “solubility change mitosis (log2)” value in data set [3] was -0.218. In addition, the thermal stability score in data set [4] (setting [5]) is -0.462; in data set [4] (cell cycle stage: mitosis), -0.84.

Consider “MAAPMEVAVCTDSAAPMWSCIVWELHSGANLLTYRGGQAGPRGLALLNGEYLLAAQLGKNYISAWELQRKDQLQQKIMCPGPVTCLTASPNGLYVLAGVAESIHLWEVSTGNLLVILSRHYQDVSCLQFTGDSSHFISGGKDCLVLVWSLCSVLQADPSRIPAPRHVWSHHALPITDLHCGFGGPLARVATSSLDQTVKLWEVSSGELLLSVLFDVSIMAVTMDLAEHHMFCGGSEGSIFQVDLFTWPGQRERSFHPEQDAGKVFKGHRNQVTCLSVSTDGSVLLSGSHDETVRLWDVQSKQCIRTVALKGPVTNAAILLAPVSMLSSDFRPSLPLPHFNKHLLGAEHGDEPRHGGLTLRLGLHQQGSEPSYLDRTEQLQAVLCSTMEKSVLGGQDQLRVRVTELEDEVRNLRKINRDLFDFSTRFITRPAK [WDR18]”, for which the “solubility in G1/S (log2)” value in data set [1] is -1.23. Further, the melting temperature in data set [2] (cell cycle stage: G1/S) stood at 56.6 °C; in data set [2] (cell cycle stage: mitosis), 54.1 °C. Further, in data set [3], the “solubility change mitosis (log2)” value was 0.571. In addition, the thermal stability score in data set [4] (setting [5]) was -1.8; in data set [4] (cell cycle stage: mitosis) it was -5.26.

On to “MAAPPGEYFSVGSQVSCRTCQEQRLQGEVVAFDYQSKMLALKCPSSSGKPNHADILLINLQYVSEVEIINDRTETPPPLASLNVSKLASKARTEKEEKLSQAYAISAGVSLEGQQLFQTIHKTIKDCKWQEKNIVVMEEVVITPPYQVENCKGKEGSALSHVRKIVEKHFRDVESQKILQRSQAQQPQKEAALSS [LSM12]”, for which, in data set [1], the “solubility in G1/S (log2)” value is -0.264. In addition, the melting temperature in data set [2] (cell cycle stage: G1/S) and in data set [2] (cell cycle stage: mitosis) was 52.3 °C in each case. Also, the “solubility change mitosis (log2)” value in data set [3] was 0.105. Also, the thermal stability score in data set [4] (setting [5]) is -0.688; in data set [4] (cell cycle stage: mitosis), -0.784.

Take “MAAPRPSPAISVSVSAPAFYAPQKKFGPVVAPKPKVNPFRPGDSEPPPAPGAQRAQMGRVGEIPPPPPEDFPLPPPPLAGDGDDAEGALGGAFPPPPPPIEESFPPAPLEEEIFPSPPPPPEEEGGPEAPIPPPPQPREKVSSIDLEIDSLSSLLDDMTKNDPFKARVSSGYVPPPVATPFSSKSSTKPAAGGTAPLPPWKSPSSSQPLPQVPAPAQSQTQFHVQPQPQPKPQVQLHVQSQTQPVSLANTQPRGPPASSPAPAPKFSPVTPKFTPVASKFSPGAPGGSGSQPNQKLGHPEALSAGTGSPQPPSFTYAQQREKPRVQEKQHPVPPPAQNQNQVRSPGAPGPLTLKEVEELEQLTQQLMQDMEHPQRQNVAVNELCGRCHQPLARAQPAVRALGQLFHIACFTCHQCAQQLQGQQFYSLEGAPYCEGCYTDTLEKCNTCGEPITDRMLRATGKAYHPHCFTCVVCARPLEGTSFIVDQANRPHCVPDYHKQYAPRCSVCSEPIMPEPGRDETVRVVALDKNFHMKCYKCEDCGKPLSIEADDNGCFPLDGHVLCRKCHTARAQT [ZYX]”: in data set [1], the “solubility in G1/S (log2)” value was 0.412. Also, the melting temperature is 55.9 °C in data set [2] (cell cycle stage: G1/S) and 65.5 °C in data set [2] (cell cycle stage: mitosis). Moreover, the “solubility change mitosis (log2)” value in data set [3] is -0.128. For the same sequence, the thermal stability score in data set [4] (setting [5]) is -1.65; in data set [4] (cell cycle stage: mitosis) it was 0.522.
